The target of test [1] is OdhI (Oxoglutarate dehydrogenase Inhibitor), FHA substrate of PknG (Corynebacterium glutamicum) (UniProt Q8NQJ3).
Test [2] has the same target. The source holds these as a separate data set.

Chain of UniProt Q8NQJ3 (Q8NQJ3 whole entry): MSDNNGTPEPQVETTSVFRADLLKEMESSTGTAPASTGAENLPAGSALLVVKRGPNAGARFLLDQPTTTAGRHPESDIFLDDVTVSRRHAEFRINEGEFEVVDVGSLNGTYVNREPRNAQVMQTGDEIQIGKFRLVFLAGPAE

In test [1], “CgPknG deletion mutant lacking residues 1 to 129 and 434 to 822 (domain or fragment)” came in with a kinase activity ([γ-32P]ATP) against OdhI compared to the full-length enzyme (phosphorylation of the 17-mer peptide unaffected) of 7 fold lower.

Take “Ser/Thr protein kinase PknG from Corynebacterium glutamicum, full length (enzyme)”: the kinase activity ([γ-32P]ATP) of CgPknG toward OdhI (25 μM) compared with the 17-mer peptide substrate lacking an FHA domain (330 μM) in test [2] was found to be 45 fold.

(Values after publication PMC8546545.)
